The results in this text go back to the RNAGym collection of RNA variant scans (doi:10.7554/elife.80360).

B1: CPEB3 Ribozyme (parent)
chain: GGGGGCCACAGCAGAAGCGUUCACGUCGCGGCCCCUGUCAGAUUCUGGUGAAUCUGCGAAUUCUGCUGU

In this data set the parent is B1. Kind of data set: self-cleavage, relative activity (ratio to wild type); higher = more cleavage; co-transcriptional.
Consider GGGGGCCACAGCAGAAGCGUUCACGUCGCGGCCCCUUUCAGAUUCUCGUGAAUCUGCGAAUUCUGCUGU, for which the self-cleavage is 0.352.
In the case of GGGGGCCACAGCAGAAGCGUUCACGUCGCGGCCCCUUUCAGAUUCUUGUGAAUCUGCGAAUUCUGCUGU, the self-cleavage came to 0.365.
Consider GGGGGCCACAGCAGAAGCGUUCACGUCGCGGCCCCUCUCAGAUUCUGGGGAAUCUGCGAAUUCUGCUGU, for which the self-cleavage was determined as 0.234.
The same measure for GGGGGCCACAGCAGAAGCGUUCACGUCGCGGCCCCUCUCAGAUUCUGGCGAAUCUGCGAAUUCUGCUGU: 0.286.
To GGGGGCCACAGCAGAAGCGUUCACGUCGCGGCCCCUCUCAGAUCCUGGUGAAUCUGCGAAUUCUGCUGU belongs 0.187; to GGGGGCCACAGCAGAAGCGUUCACGUCGCGGCCCCUUUCAGAUUCUGUUGAAUCUGCGAAUUCUGCUGU, 0.322.
Take GGGGGCCACAGCAGAAGCGUUCACGUCGCGGCCCCUUUCAGAUUCUGAUGAAUCUGCGAAUUCUGCUGU: the self-cleavage was found to be 0.388.
With GGGGGCCACAGCAGAAGCGUUCACGUCGCGGCCCCUCUCAGAUUCUGGUGAAUCUGCGAAUUCUGCUGG, the self-cleavage was found to be 0.375.
For GGGGGCCACAGCAGAAGCGUUCACGUCGCGGCCCCUCUCAGAUUCUGGUGAAUCUGCGAAUACUGCUGU, the self-cleavage came to 0.212.
In the case of GGGGGCCACAGCAGAAGCGUUCACGUCGCGGCCCCUCUCAGAUUCUGGUGAAUCUGCGAAUGCUGCUGU, the self-cleavage worked out at 0.157.
Take GGGGGCCACAGCAGAAGCGUUCACGUCGCGGCCCCUCUCAGAUUCUGGUGAAUCUGCGAAUUCUACUGU: the self-cleavage is 0.246.
The same measure for GGGGGCCACAGCAGAAGCGUUCACGUCGCGGCCCCUCUCAGAUUCUGGUGAAUCUGCGAAUUCUUCUGU: 0.237.
With GGGGGCCACAGCAGAAGCGUUCACGUCGCGGCCCCUCUCAGAUUCUGGUGAAUCUGCGAAUUCGGCUGU, the self-cleavage is 0.205.
For the variant GGGGGCCACAGCAGAAGCGUUCACGUCGCGGCCCCUUUUAGAUUCUGGUGAAUCUGCGAAUUCUGCUGU, the self-cleavage turned out to be 0.186.
The same measure for GGGGGCCACAGCAGAAGCGUUCACGUCGCGGCCCCUCUCAGAUUCCGGUGAAUCUGCGAAUUCUGCUGU: 0.174; for GGGGGCCACAGCAGAAGCGUUCACGUCGCGGCCCCUUUCAGAUUCUGGUGAAUGUGCGAAUUCUGCUGU: 0.168.
Consider GGGGGCCACAGCAGAAGCGUUCACGUCGCGGCCCCUUUCAGAUUCUGGUGAAUAUGCGAAUUCUGCUGU, for which the self-cleavage was 0.227.
To GGGGGCCACAGCAGAAGCGUUCACGUCGCGGCCCCUUUCAGAUUCUGGUGAAUCUGCGUAUUCUGCUGU belongs 0.197; to GGGGGCCACAGCAGAAGCGUUCACGUCGCGGCCCCUCUCAGACUCUGGUGAAUCUGCGAAUUCUGCUGU, 0.203; to GGGGGCCACAGCAGAAGCGUUCACGUCGCGGCCCCUCUCAGAAUCUGGUGAAUCUGCGAAUUCUGCUGU, 0.264.
Regarding GGGGGCCACAGCAGAAGCGUUCACGUCGCGGCCCCUUUCAGAUUCUGGUGAAUCUGCUAAUUCUGCUGU, the self-cleavage was determined as 0.362.
On to GGGGGCCACAGCAGAAGCGUUCACGUCGCGGCCCCUUUCAGAUUCUGGUGAAUCUGCCAAUUCUGCUGU, for which the self-cleavage is 0.279.
With GGGGGCCACAGCAGAAGCGUUCACGUCGCGGCCCCUUUCAGAUUCUGGUGAAUCUGAGAAUUCUGCUGU, the self-cleavage is 0.174.
The same measure for GGGGGCCACAGCAGAAGCGUUCACGUCGCGGCCCCUUUCAGAUUCUGGUGAAUCUGUGAAUUCUGCUGU: 0.264; for GGGGGCCACAGCAGAAGCGUUCACGUCGCGGCCCCUCUCAGAUUCUGGUGAAACUGCGAAUUCUGCUGU: 0.256; for GGGGGCCACAGCAGAAGCGUUCACGUCGCGGCCCCUCUCAGAUUCUGGUGAAUCUUCGAAUUCUGCUGU: 0.237.
As for GGGGGCCACAGCAGAAGCGUUCACGUCGCGGCCCCUCUCAGAUUCUGGUGAAUCUACGAAUUCUGCUGU, the self-cleavage was found to be 0.205.
The same measure for GGGGGCCACAGCAGAAGCGUUCACGUCGCGGCCCCUCUCAGAUUCUGGUGAAUCUGCGAAUUCUGCCGU: 0.282.
The same measure for GGGGGCCACAGCAGAAGCGUUCACGUCGCGGCCCCUUUCAGAUUCUGGUGAAUCUUCGAAUUCUGCUGU: 0.224; for GGGGGCCACAGCAGAAGCGUUCACGUCGCGGCCCCUUUCAGAUUCUGGUGAAUCUACGAAUUCUGCUGU: 0.28.
The same measure for GGGGGCCACAGCAGAAGCGUUCACGUCGCGGCCCCUUUCAGAUUCUGGUGAAUCUCCGAAUUCUGCUGU: 0.206; for GGGGGCCACAGCAGAAGCGUUCACGUCGCGGCCCCUUACAGAUUCUGGUGAAUCUGCGAAUUCUGCUGU: 0.321.
On to GGGGGCCACAGCAGAAGCGUUCACGUCGCGGCCCCUUCCAGAUUCUGGUGAAUCUGCGAAUUCUGCUGU, for which the self-cleavage stood at 0.239.
The same measure for GGGGGCCACAGCAGAAGCGUUCACGUCGCGGCCCCUUGCAGAUUCUGGUGAAUCUGCGAAUUCUGCUGU: 0.254; for GGGGGCCACAGCAGAAGCGUUCACGUCGCGGCCCCUCUCAGAUUCUGGUGAAUCUGCGAAUUCUGCUAU: 0.304; for GGGGGCCACAGCAGAAGCGUUCACGUCGCGGCCCCUCUCAGAUUCUGGUGAAUCUGCGAAUUCUGCUUU: 0.245.
For GGGGGCCACAGCAGAAGCGUUCACGUCGCGGCCCCUCUCAGAUUCUGGUGAAUCUGCGAAUUCUGCUCU, the self-cleavage was 0.245.
As to GGGGGCCACAGCAGAAGCGUUCACGUCGCGGCCCCUUUCGGAUUCUGGUGAAUCUGCGAAUUCUGCUGU, the self-cleavage turned out to be 0.366.
As for GGGGGCCACAGCAGAAGCGUUCACGUCGCGGCCCCUUUCCGAUUCUGGUGAAUCUGCGAAUUCUGCUGU, the self-cleavage amounted to 0.205.
